The target in the experiment is T1, human beta-Klotho (Homo sapiens, UniProt Q86Z14).
T1 sequence (Q86Z14 1-1044): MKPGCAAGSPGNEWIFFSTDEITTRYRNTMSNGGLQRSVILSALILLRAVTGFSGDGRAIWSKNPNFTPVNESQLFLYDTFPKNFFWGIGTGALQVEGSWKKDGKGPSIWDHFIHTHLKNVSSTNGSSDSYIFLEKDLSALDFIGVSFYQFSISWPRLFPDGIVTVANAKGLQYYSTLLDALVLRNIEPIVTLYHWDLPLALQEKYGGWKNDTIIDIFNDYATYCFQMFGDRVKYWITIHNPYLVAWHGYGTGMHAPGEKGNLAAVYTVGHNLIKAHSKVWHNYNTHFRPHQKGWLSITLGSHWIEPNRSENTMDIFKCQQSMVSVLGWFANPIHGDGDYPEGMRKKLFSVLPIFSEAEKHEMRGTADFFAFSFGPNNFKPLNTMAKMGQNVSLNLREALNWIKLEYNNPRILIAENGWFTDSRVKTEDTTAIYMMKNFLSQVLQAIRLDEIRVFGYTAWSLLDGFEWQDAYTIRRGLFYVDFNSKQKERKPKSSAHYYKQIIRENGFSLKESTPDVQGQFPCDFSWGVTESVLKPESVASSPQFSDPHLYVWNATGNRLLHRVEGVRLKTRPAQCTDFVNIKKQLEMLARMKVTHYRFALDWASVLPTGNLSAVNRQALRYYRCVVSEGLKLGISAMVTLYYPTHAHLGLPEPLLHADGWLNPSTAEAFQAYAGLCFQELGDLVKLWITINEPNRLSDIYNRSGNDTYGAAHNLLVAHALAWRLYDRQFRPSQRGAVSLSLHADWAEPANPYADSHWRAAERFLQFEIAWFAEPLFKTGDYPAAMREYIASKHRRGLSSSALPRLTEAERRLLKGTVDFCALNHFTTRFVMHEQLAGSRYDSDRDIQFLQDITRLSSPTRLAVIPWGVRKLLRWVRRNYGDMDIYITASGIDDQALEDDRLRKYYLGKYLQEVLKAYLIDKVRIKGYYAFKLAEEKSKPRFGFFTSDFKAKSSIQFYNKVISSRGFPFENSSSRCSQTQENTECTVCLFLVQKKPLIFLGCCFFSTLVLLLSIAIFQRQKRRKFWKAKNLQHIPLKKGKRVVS
The experiment is described as follows: SPR off-rate screening of antibody mutants (human beta-Klotho captured by anti-His antibody). Type of experiment: binding. The following applies: mean, n=3. How it is done:
Screening of antibody mutants for binding to human beta-Klotho was determined in a different SPR assay set up. Human beta-Klotho was affinity captured by an anti-His antibody (from His capture kit, GE Healthcare) that was immobilized to a series S CM5 chip (GE Healthcare) by amine reactive coupling as described above. The antibody samples were used as analytes at 50 nmol/L concentration. Association time was 240 sec and dissociation time was 300 sec. Chip surfaces were regenerated using the regeneration solution supplied with the His capture kit. The off-rates (kd) were determined using single exponential fitting in the Biacore 8K Evaluation Software version 1.1.1.7442 (GE Healthcare).
Take “Ab0186: IgG4 PE; 16H7 VL; 16H7 VH (M34V, I83T)”: the “koff human KLB” value is 0.000104 s⁻¹. As for “Ab0187: IgG4 PE; 16H7 VL (N25S); 16H7 VH (M34V, I83T)”, the “koff human KLB” value is 0.000156 s⁻¹. As to “Ab0188: IgG4 PE; 16H7 VL (D49Y); 16H7 VH (M34V, I83T)”, the “koff human KLB” value worked out at 0.00084 s⁻¹. “Ab0189: IgG4 PE; 16H7 VL (D50E); 16H7 VH (M34V, I83T)”: the “koff human KLB” value came out at 0.000387 s⁻¹.

On to “Ab0190: IgG4 PE; 16H7 VL (D91T); 16H7 VH (M34V, I83T)”, for which the “koff human KLB” value was determined as 0.000195 s⁻¹. For “Ab0191: IgG4 PE; 16H7 VL (N93E); 16H7 VH (M34V, I83T)”, the “koff human KLB” value is 0.000144 s⁻¹. Consider “Ab0192: IgG4 PE; 16H7 VL (D95E); 16H7 VH (M34V, I83T)”, for which the “koff human KLB” value is on record as “invalid fit”. For “Ab0193: IgG4 PE; 16H7 VL; 16H7 VH (I83T, D109E)”, the “koff human KLB” value amounted to 0.000337 s⁻¹. As for “Ab0194: IgG4 PE; 16H7 VL (N25S); 16H7 VH (I83T, D109E)”, the “koff human KLB” value is 0.000402 s⁻¹. As for “Ab0195: IgG4 PE; 16H7 VL (D49Y); 16H7 VH (I83T, D109E)”, the “koff human KLB” value was 0.00267 s⁻¹. On to “Ab0196: IgG4 PE; 16H7 VL (D50E); 16H7 VH (I83T, D109E)”, for which the “koff human KLB” value was 0.00194 s⁻¹. With “Ab0197: IgG4 PE; 16H7 VL (D91T); 16H7 VH (I83T, D109E)” the figure was 0.00167 s⁻¹; with “Ab0198: IgG4 PE; 16H7 VL (N93E); 16H7 VH (I83T, D109E)”, 0.000346 s⁻¹; with “Ab0199: IgG4 PE; 16H7 VL (D95E); 16H7 VH (I83T, D109E)”, “invalid fit”. For “Ab0200: IgG4 PE; 16H7 VL; 16H7 VH (M34V, I83T, D109E)” the value was 0.000369 s⁻¹; for “Ab0201: IgG4 PE; 16H7 VL (N25S); 16H7 VH (M34V, I83T, D109E)”, 0.000336 s⁻¹.

Take “Ab0202: IgG4 PE; 16H7 VL (D49Y); 16H7 VH (M34V, I83T, D109E)”: the “koff human KLB” value amounted to 0.00161 s⁻¹. As to “Ab0203: IgG4 PE; 16H7 VL (D50E); 16H7 VH (M34V, I83T, D109E)”, the “koff human KLB” value is 0.00151 s⁻¹. For the substance “Ab0204: IgG4 PE; 16H7 VL (D91T); 16H7 VH (M34V, I83T, D109E)”, the “koff human KLB” value was 0.00133 s⁻¹.

For the substance “Ab0205: IgG4 PE; 16H7 VL (N93E); 16H7 VH (M34V, I83T, D109E)”, the “koff human KLB” value was determined as 0.000334 s⁻¹. For the substance “Ab0207: IgG4 PE; 16H7 VL; 16H7 VH (I83T, D109Y)”, the “koff human KLB” value was 0.00188 s⁻¹. Turning to “Ab0208: IgG4 PE; 16H7 VL (N25S); 16H7 VH (I83T, D109Y)”, the “koff human KLB” value came to 0.0021 s⁻¹.

Regarding “Ab0209: IgG4 PE; 16H7 VL (D49Y); 16H7 VH (I83T, D109Y)”, the “koff human KLB” value is “invalid fit”. For “Ab0210: IgG4 PE; 16H7 VL (D50E); 16H7 VH (I83T, D109Y)” the value was “invalid fit”.

In the case of “Ab0211: IgG4 PE; 16H7 VL (D91T); 16H7 VH (I83T, D109Y)”, the “koff human KLB” value is reported as “invalid fit”. In the case of “Ab0212: IgG4 PE; 16H7 VL (N93E); 16H7 VH (I83T, D109Y)”, the “koff human KLB” value is 0.00185 s⁻¹. Take “Ab0213: IgG4 PE; 16H7 VL (D95E); 16H7 VH (I83T, D109Y)”: the “koff human KLB” value was “invalid fit”. Consider “Ab0214: IgG4 PE; 16H7 VL; 16H7 VH (I83T, D109S)”, for which the “koff human KLB” value is 0.00121 s⁻¹. Regarding “Ab0215: IgG4 PE; 16H7 VL (N25S); 16H7 VH (I83T, D109S)”, the “koff human KLB” value is 0.00125 s⁻¹. Take “Ab0216: IgG4 PE; 16H7 VL (D49Y); 16H7 VH (I83T, D109S)”: the “koff human KLB” value was 0.00984 s⁻¹. Consider “Ab0217: IgG4 PE; 16H7 VL (D50E); 16H7 VH (I83T, D109S)”, for which the “koff human KLB” value worked out at 0.002 s⁻¹.

“Ab0218: IgG4 PE; 16H7 VL (D91T); 16H7 VH (I83T, D109S)”: the “koff human KLB” value was 0.00668 s⁻¹.

Take “Ab0219: IgG4 PE; 16H7 VL (N93E); 16H7 VH (I83T, D109S)”: the “koff human KLB” value turned out to be 0.000915 s⁻¹. “Ab0220: IgG4 PE; 16H7 VL (D95E); 16H7 VH (I83T, D109S)”: the “koff human KLB” value is “invalid fit”. Turning to “Ab0234: IgG4 PE; 16H7 VL (N93S); 16H7 VH”, the “koff human KLB” value turned out to be 0.00011 s⁻¹. For the substance “Ab0295: IgG4 PE; 16H7 VL (N25S, D49Y); 16H7 VH (M34V, I83T, D109E)”, the “koff human KLB” value is 0.00157 s⁻¹. Consider “Ab0296: IgG4 PE; 16H7 VL (N25S, D50E); 16H7 VH (M34V, I83T, D109E)”, for which the “koff human KLB” value came out at 0.00137 s⁻¹.

For “Ab0297: IgG4 PE; 16H7 VL (D49Y, D50E); 16H7 VH (M34V, I83T, D109E)”, the “koff human KLB” value was 0.00156 s⁻¹. Consider “Ab0300: IgG4 PE; 16H7 VL (D49Y, D91T); 16H7 VH (M34V, I83T, D109E)”, for which the “koff human KLB” value was “invalid fit”. For the substance “Ab0302: IgG4 PE; 16H7 VL (D50E, D91T); 16H7 VH (M34V, I83T, D109E)”, the “koff human KLB” value is given as “invalid fit”. As for “Ab0306: IgG4 PE; 16H7 VL (N25S, N93E); 16H7 VH (M34V, I83T, D109E)”, the “koff human KLB” value is 0.000288 s⁻¹. In the case of “Ab0307: IgG4 PE; 16H7 VL (D49Y, N93E); 16H7 VH (M34V, I83T, D109E)”, the “koff human KLB” value was 0.00118 s⁻¹. For the substance “Ab0309: IgG4 PE; 16H7 VL (D50E, N93E); 16H7 VH (M34V, I83T, D109E)”, the “koff human KLB” value worked out at 0.00103 s⁻¹. As for “Ab0386: IgG4 PE; 16H7 VL (D95S, W90F); 16H7 VH (M34V, F54W, I83T, D109E)”, the “koff human KLB” value is reported as “no binding”.

The values are drawn from patent US20250115669A1, “FGFR1/KLB Targeting Agonistic Antigen-Binding Proteins and Conjugates Thereof with GLP-1R Agonistic Peptides” (SANOFI, priority 2020, published 2025).
